Data published in patent US20120231000A1.

Molecular target: Avastin™ (Bevacizumab)
Assay: competition ELISA, inhibition of Avastin binding to coated humVEGF1-165

fold difference in affinity as compared to humVEGF1-165: < 5 fold
B1: oxid-humVEGF26-104 (designed binder)
chain: CHPIETLVDIFQEYPDEIEYIFKPSAVPLMRCGGACNDEGLECVPTEESNITMQIMRIKPHQGQHIGEMSFLQHNKCEC
modifications: N-terminal acetyl; C-terminal amide; oxidatively folded cystine knot (three disulfide bonds C1-C4, C2-C5, C3-C6)
